Biological target: HA-SKP2 phosphorylated in vitro by AKT (32P-SKP2) (UniProt Q13309)
Sequence (Q13309 whole entry, looked up): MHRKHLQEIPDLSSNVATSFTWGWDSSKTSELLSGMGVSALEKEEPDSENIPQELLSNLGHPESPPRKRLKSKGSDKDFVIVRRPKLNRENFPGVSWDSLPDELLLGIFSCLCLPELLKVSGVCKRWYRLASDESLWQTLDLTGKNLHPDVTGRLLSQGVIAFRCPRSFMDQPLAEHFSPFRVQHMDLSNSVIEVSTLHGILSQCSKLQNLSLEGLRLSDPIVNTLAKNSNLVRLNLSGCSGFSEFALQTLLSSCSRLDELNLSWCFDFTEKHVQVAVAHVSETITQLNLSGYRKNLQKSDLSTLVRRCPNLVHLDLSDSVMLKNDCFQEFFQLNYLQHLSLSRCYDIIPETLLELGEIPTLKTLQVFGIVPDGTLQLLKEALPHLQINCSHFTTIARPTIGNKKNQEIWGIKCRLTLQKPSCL

flag-PTEN
removal of 32P from AKT-phosphorylated SKP2: neither PTEN nor PPM1H exhibited any evidence of phosphatase activity on SKP2

From patent US20110151454
